# In PMC3131183:
# Tests used:
# Experiment in all cases: FRET or BRET
# [1] = target: Gγ subunit (human (endogenous in PMNs)) (UniProt P59768)
# [2] = target: Hck (haemopoietic cell kinase) (human (endogenous in PMNs)) (UniProt P08631)
# [3] = target: β-arrestin-1 (human (endogenous in PMNs)) (UniProt P49407)
# UniProt P49407, sequence (P49407 whole entry): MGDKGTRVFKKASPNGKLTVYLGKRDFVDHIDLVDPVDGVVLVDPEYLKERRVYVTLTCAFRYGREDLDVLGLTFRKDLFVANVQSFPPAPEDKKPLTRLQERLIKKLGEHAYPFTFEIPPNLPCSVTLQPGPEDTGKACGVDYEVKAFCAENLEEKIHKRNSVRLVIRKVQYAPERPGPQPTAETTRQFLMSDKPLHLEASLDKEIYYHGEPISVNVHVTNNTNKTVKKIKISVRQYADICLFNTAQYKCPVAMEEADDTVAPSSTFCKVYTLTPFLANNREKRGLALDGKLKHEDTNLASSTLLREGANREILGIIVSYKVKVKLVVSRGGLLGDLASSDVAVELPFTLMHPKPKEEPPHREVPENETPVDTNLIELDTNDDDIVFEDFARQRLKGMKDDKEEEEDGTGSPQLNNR
# UniProt P08631, sequence (P08631 whole entry): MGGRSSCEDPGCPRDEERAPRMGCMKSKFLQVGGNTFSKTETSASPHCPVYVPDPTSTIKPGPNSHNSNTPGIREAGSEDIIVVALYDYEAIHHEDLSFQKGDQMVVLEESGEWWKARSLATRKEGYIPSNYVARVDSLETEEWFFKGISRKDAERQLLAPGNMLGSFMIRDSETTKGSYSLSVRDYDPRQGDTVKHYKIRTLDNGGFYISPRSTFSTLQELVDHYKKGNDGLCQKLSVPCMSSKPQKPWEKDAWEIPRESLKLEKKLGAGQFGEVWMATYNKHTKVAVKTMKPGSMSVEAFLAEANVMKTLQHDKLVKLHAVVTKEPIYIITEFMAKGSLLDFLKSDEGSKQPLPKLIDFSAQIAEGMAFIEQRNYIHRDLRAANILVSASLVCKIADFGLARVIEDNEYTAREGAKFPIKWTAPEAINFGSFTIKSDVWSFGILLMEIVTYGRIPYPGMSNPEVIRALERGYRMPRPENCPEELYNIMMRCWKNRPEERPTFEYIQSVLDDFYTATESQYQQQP
FRET efficiency [1] [%],FRET efficiency [2] [%],FRET efficiency [3] [%],Substance
58,54,–,Gβ subunit (from UniProt P62873 1-340) (natural protein)
–,–,38,clathrin heavy chain (from UniProt Q00610 1-1675) (natural protein)
